Literature values, collected in article PMC6181577.

Biological target: UBQLN2 UBA (Homo sapiens) (UniProt Q9UHD9)
Sequence (Q9UHD9 578-624): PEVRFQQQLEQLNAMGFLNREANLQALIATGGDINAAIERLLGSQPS

UBQLN2 UBL, sequence (Q9UHD9 33-107): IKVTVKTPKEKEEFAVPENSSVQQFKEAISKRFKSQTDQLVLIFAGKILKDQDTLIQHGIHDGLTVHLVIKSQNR

Kd: 175 µM
Substance: UBQLN2 UBL (from UniProt Q9UHD9)
